# ± gives the standard deviation of the averaged measurements.
# Assays:
# Saccharomyces cerevisiae [1] = test: protein stability index of tFT-peptide fusion (C-terminal peptide) (PSI (0-1 scale)); higher = more stable (slower turnover)
# Method: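 MPS profiling in S. cerevisiae of the tFT-X12 degron library: putative degron peptides plus stable controls, 12 aa, fused to the C-terminus of a sfGFP-mCherry timer. Cells are FACS-sorted into 8 mCherry/sfGFP bins and deep-sequenced. PSI runs from 0 (unstable) to 1 (stable). Backgrounds are wild type, das1Δ and doa10Δ at 30 °C, and wild type, das1Δ, cdc34-1 and cdc53-1 at 37 °C; 2-3 technical replicates each.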
# Saccharomyces cerevisiae [2] = test: as above; details: genetic background: wild type; temperature: 30 C
# [3] = genetic background: cdc34-1, temperature: 37 C
# [4] = genetic background: cdc53-1, temperature: 37 C
# [5] = genetic background: das1 deletion, temperature: 30 C
# [6] = genetic background: das1 deletion, temperature: 37 C
# [7] = genetic background: doa10 deletion, temperature: 30 C
# [8] = genetic background: wild type, temperature: 30 C
# [9] = genetic background: wild type, temperature: 37 C
# 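Further: PSI is a weighted mean of sequencing reads over stability bins, variants kept only with over 10 reads, mCherry proximal and sfGFP distal, peptide attached via GGGS linker.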
Sequence,protein stability index (Saccharomyces cerevisiae [1]; [3]),protein stability index (Saccharomyces cerevisiae [1]; [4]),protein stability index (Saccharomyces cerevisiae [1]; [5]),protein stability index (Saccharomyces cerevisiae [1]; [6]),protein stability index (Saccharomyces cerevisiae [1]; [7]),protein stability index (Saccharomyces cerevisiae [1]; [8]),protein stability index (Saccharomyces cerevisiae [1]; [9]),protein stability index (Saccharomyces cerevisiae [2])
GLPRRFLLLSVV,0.328 ± 0.008,0.4613 ± 0.0015,0.354 ± 0.033,0.508 ± 0.015,0.11 ± 0.016,0.137 ± 0.016,0.114 ± 0.02,0.218 ± 0.0055
GPHATYLYLVLA,0.199 ± 0.022,0.258 ± 0.022,0.226 ± 0.039,0.34 ± 0.0059,0.1579 ± 0.00054,0.177 ± 0.018,0.22866 ± 0.00017,0.2383 ± 0.00092
GPRRARLPNFLA,0.445 ± 0.013,0.684 ± 0.031,0.657 ± 0.018,0.715 ± 0.018,0.0795 ± 0.025,0.0947 ± 0.025,0.123 ± 0.022,0.085 ± 0.012
GQSRLVADLRQV,0.635 ± 0.055,0.6934 ± 0.0012,0.646 ± 0.012,0.678 ± 0.018,0.676 ± 0.035,0.676 ± 0.0081,0.675 ± 0.025,0.7147 ± 0.00089
GRGFVLSVAVVA,0.404 ± 0.011,0.453 ± 0.031,0.395 ± 0.034,0.502 ± 0.0094,0.363 ± 0.0089,0.395 ± 0.021,0.467 ± 0.0049,0.435 ± 0.012
GRVCWVVLAGLV,0.593 ± 0.04,0.591 ± 0.053,0.441 ± 0.026,0.6202 ± 0.0013,0.307 ± 0.01,0.341 ± 0.026,0.5394 ± 0.0042,0.429 ± 0.0095
GTVRSLLKWRCS,0.654 ± 0.051,0.732 ± 0.0075,0.651 ± 0.027,0.7431 ± 0.0073,0.148 ± 0.016,0.192 ± 0.02,0.384 ± 0.011,0.3259 ± 0.00055
GVCLGFICVGFC,0.494 ± 0.028,0.55 ± 0.0067,0.359 ± 0.031,0.576 ± 0.032,0.343 ± 0.029,0.362 ± 0.026,0.522 ± 0.0075,0.444 ± 0.018
GVCWCVLFVVGC,0.312 ± 0.012,0.417 ± 0.059,0.271 ± 0.027,0.484 ± 0.006,0.226 ± 0.012,0.259 ± 0.02,0.428 ± 0.052,0.359 ± 0.013
GVYFIGISRCVC,0.559 ± 0.006,0.642 ± 0.037,0.529 ± 0.029,0.669 ± 0.0011,0.175 ± 0.018,0.208 ± 0.025,0.36 ± 0.015,0.307 ± 0.0065
GVYRLCLLLLVY,0.0836 ± 0.015,0.107 ± 0.03,0.183 ± 0.014,0.239 ± 0.021,0.158 ± 0.0074,0.156 ± 0.026,0.237 ± 0.015,0.218 ± 0.034
GWRGVVLVFVLV,0.302 ± 0.0049,0.46 ± 0.059,0.28 ± 0.027,0.47443 ± 1.3e-05,0.251 ± 0.012,0.269 ± 0.027,0.438 ± 0.015,0.36784 ± 0.00027
GWSRRFFCLFIV,0.203 ± 0.052,0.303 ± 0.0019,0.345 ± 0.041,0.4984 ± 0.0011,0.0815 ± 0.015,0.0745 ± 0.024,0.0793 ± 0.006,0.137 ± 0.002
GWWCGIGVAVSV,0.432 ± 0.039,0.461 ± 0.039,0.337 ± 0.03,0.5114 ± 0.0051,0.292 ± 0.0069,0.339 ± 0.027,0.477 ± 0.01,0.464 ± 0.015
HHACLLPVRKAG,0.636 ± 0.056,0.752 ± 0.012,0.6526 ± 0.00091,0.744 ± 0.0085,0.154 ± 0.007,0.187 ± 0.0086,0.404 ± 0.024,0.277 ± 0.027
HLAQYSSSLHLM,0.657 ± 0.098,0.719 ± 0.011,0.653 ± 0.0071,0.731 ± 0.027,0.375 ± 0.022,0.424 ± 0.014,0.6165 ± 0.0024,0.554 ± 0.085
HPPPPPPPPSLS,0.673 ± 0.038,0.715 ± 0.0098,0.666 ± 0.028,0.7362 ± 0.0017,0.677 ± 0.029,0.67 ± 0.013,0.7037 ± 0.002,0.513 ± 0.062
IACVLSIFLNAA,0.325 ± 0.0071,0.435 ± 0.051,0.292 ± 0.039,0.435 ± 0.0047,0.2559 ± 0.0013,0.274 ± 0.031,0.436 ± 0.0094,0.44 ± 0.054
ICQFFFFALLSF,0.109 ± 0.04,0.0674 ± 0.0054,0.164 ± 0.016,0.244 ± 0.021,0.238 ± 0.011,0.128 ± 0.018,0.19 ± 0.0063,0.178 ± 0.013
IDSEVHLWKRSA,0.618 ± 0.046,0.725 ± 0.012,0.642 ± 0.017,0.719 ± 0.037,0.16 ± 0.016,0.176 ± 0.027,0.405 ± 0.011,0.336 ± 0.058

Sequence,protein stability index (Saccharomyces cerevisiae [1]; [3]),protein stability index (Saccharomyces cerevisiae [1]; [4]),protein stability index (Saccharomyces cerevisiae [1]; [5]),protein stability index (Saccharomyces cerevisiae [1]; [6]),protein stability index (Saccharomyces cerevisiae [1]; [7]),protein stability index (Saccharomyces cerevisiae [1]; [8]),protein stability index (Saccharomyces cerevisiae [1]; [9]),protein stability index (Saccharomyces cerevisiae [2])
IFAVLVSGSFFF,0.425 ± 0.018,0.541 ± 0.014,0.324 ± 0.051,0.545 ± 0.017,0.318 ± 0.0053,0.336 ± 0.041,0.509 ± 0.017,0.4288 ± 0.00067
IFLGFGPLFGRL,0.862 ± 0.044,0.878 ± 0.011,0.727 ± 0.03,0.817 ± 0.034,0.726 ± 0.037,0.73 ± 0.0083,0.824 ± 0.03,0.777 ± 0.034
IGSFFLFFLLIF,0.281 ± 0.025,0.291 ± 0.029,0.3 ± 0.025,0.383 ± 0.0054,0.354 ± 0.027,0.245 ± 0.045,0.3726 ± 0.0017,0.384 ± 0.02
IIIGTLLYVNVR,0.279 ± 0.0059,0.323 ± 0.033,0.243 ± 0.03,0.403 ± 0.012,0.188 ± 0.018,0.215 ± 0.029,0.39 ± 0.041,0.29 ± 0.022
IKRLKEVARHVS,0.623 ± 0.057,0.706 ± 0.017,0.645 ± 0.03,0.694 ± 0.0085,0.265 ± 0.019,0.256 ± 0.031,0.4381 ± 0.0021,0.44 ± 0.054
ILGQSVIMRIKM,0.673 ± 0.035,0.7301 ± 0.0028,0.615 ± 0.027,0.7007 ± 0.00077,0.606 ± 0.0061,0.636 ± 0.02,0.686 ± 0.014,0.714 ± 0.075
ILLICLQFFNLF,0.427 ± 0.057,0.544 ± 0.012,0.394 ± 0.035,0.5269 ± 0.0039,0.3502 ± 0.00069,0.36 ± 0.018,0.505 ± 0.0075,0.4481 ± 0.0036
ILRIYIPRWRRQ,0.648 ± 0.069,0.6821 ± 0.0054,0.62 ± 0.02,0.7292 ± 0.0032,0.119 ± 0.032,0.132 ± 0.035,0.332 ± 0.0091,0.219 ± 0.087
INKKKKMIITKI,0.617 ± 0.11,0.726 ± 0.011,0.662 ± 0.073,0.742 ± 0.063,0.227 ± 0.0025,0.253 ± 0.043,0.479 ± 0.015,0.427 ± 0.019
IPRSCRIRLAVL,0.658 ± 0.03,0.715 ± 0.0073,0.562 ± 0.032,0.7175 ± 0.0055,0.254 ± 0.0096,0.271 ± 0.027,0.359 ± 0.021,0.359 ± 0.014
IQICLNRLRLFH,0.654 ± 0.024,0.7 ± 0.01,0.63 ± 0.016,0.7002 ± 0.0018,0.251 ± 0.016,0.305 ± 0.02,0.573 ± 0.043,0.4361 ± 0.0038
IRACGCSFLWVC,0.465 ± 0.048,0.63 ± 0.01,0.5 ± 0.026,0.678 ± 0.0079,0.1113 ± 0.00066,0.106 ± 0.0056,0.118 ± 0.015,0.192 ± 0.035
IRLCAASFMVVF,0.501 ± 0.025,0.55 ± 0.03,0.414 ± 0.023,0.5352 ± 0.0027,0.3904 ± 0.0034,0.405 ± 0.023,0.524 ± 0.014,0.474 ± 0.017
IRSRGLLIRWLS,0.52 ± 0.025,0.679 ± 0.023,0.616 ± 0.026,0.721 ± 0.011,0.0894 ± 0.0094,0.0994 ± 0.033,0.148 ± 0.015,0.182 ± 0.015
IVCAVTSIFLFF,0.306 ± 0.015,0.45 ± 0.0079,0.288 ± 0.014,0.452 ± 0.016,0.243 ± 0.01,0.249 ± 0.035,0.422 ± 0.0045,0.315 ± 0.021
IVRSLFGYLCVV,0.571 ± 0.0099,0.609 ± 0.0076,0.524 ± 0.015,0.633 ± 0.0095,0.427 ± 0.0099,0.437 ± 0.022,0.569 ± 0.0066,0.467 ± 0.037
KCVVMFFLRSVS,0.636 ± 0.024,0.6956 ± 0.0065,0.529 ± 0.037,0.676 ± 0.022,0.396 ± 0.012,0.412 ± 0.011,0.598 ± 0.011,0.5 ± 0.026
KFFRSWVLTSPA,0.585 ± 0.06,0.607 ± 0.015,0.427 ± 0.032,0.6157 ± 0.0025,0.41 ± 0.021,0.444 ± 0.018,0.609 ± 0.021,0.494 ± 0.057
KFRGMTLRNKVC,0.545 ± 0.041,0.73 ± 0.047,0.657 ± 0.019,0.717 ± 0.017,0.093 ± 0.0025,0.1 ± 0.04,0.224 ± 0.069,0.267 ± 0.013

# Reference: the supplement of paper PMC10724198
